B6: FliM (natural protein, UniProt P26418 1-334, looked up)
chain: MGDSILSQAEIDALLNGDSDTKDEPTPGIASDSDIRPYDPNTQRRVVRERLQALEIINERFARQFRMGLFNLLRRSPDITVGAIRIQPYHEFARNLPVPTNLNLIHLKPLRGTGLVVFSPSLVFIAVDNLFGGDGRFPTKVEGREFTHTEQRVINRMLKLALEGYSDAWKAINPLEVEYVRSEMQVKFTNITTSPNDIVVNTPFHVEIGNLTGEFNICLPFSMIEPLRELLVNPPLENSRHEDQNWRDNLVRQVQHSELELVANFADIPLRLSQILKLKPGDVLPIEKPDRIIAHVDGVPVLTSQYGTVNGQYALRVEHLINPILNSLNEEQPK
notes: FliM, flagellar motor switch protein of the C ring, Salmonella Typhimurium LT2; domains FliMN, FliMM, FliMC; Subunit of the purified complex m8; 34 copies in the C ring; also called FliMN; FliMM
B7: FliF (natural protein, UniProt P15928 1-560, looked up)
chain: MSATASTATQPKPLEWLNRLRANPRIPLIVAGSAAVAIVVAMVLWAKTPDYRTLFSNLSDQDGGAIVAQLTQMNIPYRFANGSGAIEVPADKVHELRLRLAQQGLPKGGAVGFELLDQEKFGISQFSEQVNYQRALEGELARTIETLGPVKSARVHLAMPKPSLFVREQKSPSASVTVTLEPGRALDEGQISAVVHLVSSAVAGLPPGNVTLVDQSGHLLTQSNTSGRDLNDAQLKFANDVESRIQRRIEAILSPIVGNGNVHAQVTAQLDFANKEQTEEHYSPNGDASKATLRSRQLNISEQVGAGYPGGVPGALSNQPAPPNEAPIATPPTNQQNAQNTPQTSTSTNSNSAGPRSTQRNETSNYEVDRTIRHTKMNVGDIERLSVAVVVNYKTLADGKPLPLTADQMKQIEDLTREAMGFSDKRGDTLNVVNSPFSAVDNTGGELPFWQQQSFIDQLLAAGRWLLVLVVAWILWRKAVRPQLTRRVEEAKAAQEQAQVRQETEEAVEVRLSKDEQLQQRRANQRLGAEVMSQRIREMSDNDPRVVALVIRQWMSNDHE
notes: FliF, MS ring protein, Salmonella Typhimurium LT2; RBM1, RBM2, RBM3, β-collar, C-terminal region FliFC; Subunit of the purified complex m8; 34 copies in the MS ring; also called FliFC; MS ring protein

The target in series [1] is B7. Put plainly: cryo-EM structure; 5 μL purified CCW basal body–hook complex mixed with 1 μL CheY** (2 mg/mL), 15 min at room temperature, 1.5 h on ice; CW state; C ring C34 map 5.6 Å, four protomers 4.4 Å, whole complex 4.3 Å, local maps 2.8–3.8 Å. The settings on record: both partners purified.
Series [2] has as its target B6. Kind of series: cryo-EM structure; basal body–hook complex in the default CCW state purified from S. Typhimurium ΔfliCD in TET buffer (10 mM Tris-HCl pH 8.0, 5 mM EDTA, 0.1% Triton X-100); C ring C34 map 5.9 Å, four protomers 4.0 Å, whole complex 7.4 Å, local maps 3.0–4.3 Å. The settings on record: both partners purified.
Series [3] deals with the molecule itself. The description is as above.
The target of series [4] is B7. Described as above. The settings on record: both partners purified.
Series [5] deals with T1, C ring-containing flagellar basal body–hook complex in the default CCW state (Salmonella enterica serovar Typhimurium …, UniProt P0A1J9 1-331; P26418 1-334; P26419 1-137; P15928 1-560; P54700 22-245; P54702 …).
T1 construct: FliG, C ring, Salmonella Typhimurium LT2; FliM, C ring, Salmonella Typhimurium LT2; FliN, C ring, Salmonella Typhimurium LT2; FliF, MS ring, Salmonella Typhimurium LT2; FliP, export apparatus, Salmonella Typhimurium LT2; FliR, export apparatus, Salmonella Typhimurium LT2; FliQ, export apparatus, Salmonella Typhimurium LT2; FliE, rod, Salmonella Typhimurium LT2; FlgB, rod, Salmonella Typhimurium …
Kind of series: cryo-EM structure; 5 μL purified CCW basal body–hook complex mixed with 1 μL CheY** (2 mg/mL), 15 min at room temperature, 1.5 h on ice; CW state; C ring C34 map 5.6 Å, four protomers 4.4 Å, whole complex 4.3 Å, local maps 2.8–3.8 Å. As to conditions: both partners purified.

For series [6], the target named is B6. The description is as above. The settings on record: both partners purified.

B1: FliG (natural protein, UniProt P0A1J9 1-331, looked up)
chain: MSNLSGTDKSVILLMTIGEDRAAEVFKHLSTREVQALSTAMANVRQISNKQLTDVLSEFEQEAEQFAALNINANEYLRSVLVKALGEERASSLLEDILETRDTTSGIETLNFMEPQSAADLIRDEHPQIIATILVHLKRSQAADILALFDERLRHDVMLRIATFGGVQPAALAELTEVLNGLLDGQNLKRSKMGGVRTAAEIINLMKTQQEEAVITAVREFDGELAQKIIDEMFLFENLVDVDDRSIQRLLQEVDSESLLIALKGAEPPLREKFLRNMSQRAADILRDDLANRGPVRLSQVENEQKAILLIVRRLAETGEMVIGSGEDTYV
notes: FliG, flagellar motor switch protein of the C ring, Salmonella Typhimurium LT2; domains FliGN, FliGM, FliGCN, FliGCC; Subunit of the purified complex m8; 34 copies in the C ring; also called FliGN; FliGM
As for B1, the binding result with FliF [1] is listed as “binds”. Also, the “stoichiometry N” value with FliM [2] was 1; in series [3] it was 34.

B2: FliN (natural protein, UniProt P26419 1-137, looked up)
chain: MSDMNNPSDENTGALDDLWADALNEQKATTTKSAADAVFQQLGGGDVSGAMQDIDLIMDIPVKLTVELGRTRMTIKELLRLTQGSVVALDGLAGEPLDILINGYLIAQGEVVVVADKYGVRITDIITPSERMRRLSR
notes: FliN, flagellar motor switch protein of the C ring, Salmonella Typhimurium LT2; FliN1, FliN2 and FliN3 are the three copies in one protomer; Subunit of the purified complex m8; 102 copies in the C ring; also called FliN1; FliN2
Regarding B2, the “stoichiometry N” value with FliM [2] is 3. Also, in series [3], the binding result was “binds”.

B3: FliE (natural protein, UniProt P26462 1-104, looked up)
chain: MAAIQGIEGVISQLQATAMAARGQDTHSQSTVSFAGQLHAALDRISDRQAAARVQAEKFTLGEPGIALNDVMADMQKASVSMQMGIQVRNKLVAAYQEVMSMQV
notes: FliE, rod protein of the flagellar basal body, Salmonella Typhimurium LT2; Subunit of the purified complex m8; 6 copies in the rod; also called FliE^6
Consider B3, for which, in the series with FliF [4], the binding result was “binds”.

B4: CheY D13K/Y106W (constitutively active double mutant) (natural protein)
chain: MADKELKFLVVDKFSTMRRIVRNLLKELGFNNVEEAEDGVDALNKLQAGGFGFIISDWNMPNMDGLELLKTIRADSAMSALPVLMVTAEAKKENIIAAAQAGASGWVVKPFTAATLEEKLNKIFEKLGM
notes: CheY, chemotaxis signal protein, gene amplified from genomic DNA of Salmonella enterica serovar Typhimurium LT2; double mutant D13K/Y106W; Tag linked through an HRV3C protease site; residues of the site may remain at the C-terminus after cleavage; Vector pET-14b; source: E. coli BL21 (DE3), purified (Streptactin column, PreScission protease digestion, Superdex 75); not shown: Twin-Strep-tag II, …
For B4, the “stoichiometry N” value in series [5] was determined as 34. Also, the binding result in the series with FliM [6] is on record as “binds”.

B5: FlgC (natural protein)
chain: MALLNIFDIAGSALAAQSKRLNVAASNLANADSVTGPDGQPYRAKQVVFQVDAAPGQATGGVKVASVIESQAPEKLVYEPGNPLADANGYVKMPNVDVVGEMVNTMSASRSYQANIEVLNTVKSMMLKTLTLGQ
notes: FlgC, proximal rod protein of the flagellar basal body, Salmonella Typhimurium LT2; Subunit of the purified complex m8; 6 copies in the rod; also called FlgC^1; FlgC^6
Consider B5, for which, in the series with FliF [4], the binding result is given as “binds”.
As to B6, in series [3], the “stoichiometry N” value stood at 34.
On the same count and under the same terms, next, B7: 34.

One may read the stoichiometry N as a count of units in the complex or per binding partner.

(Values after PMC11528121, “Structural basis of the bacterial flagellar motor rotational switching” (Cell Research, 2024).)
